In this test the target is Glucose-6-phosphate dehydrogenase aggregates formed at 50 °C (UniProt P11411). Description: co-sedimentation; as a1 but ClpB homo- or heterohexamers (5 μM) with G6PDH50 aggregates in the absence of DnaK.
Sequence of Glucose-6-phosphate dehydrogenase aggregates formed at 50 °C (P11411 whole entry): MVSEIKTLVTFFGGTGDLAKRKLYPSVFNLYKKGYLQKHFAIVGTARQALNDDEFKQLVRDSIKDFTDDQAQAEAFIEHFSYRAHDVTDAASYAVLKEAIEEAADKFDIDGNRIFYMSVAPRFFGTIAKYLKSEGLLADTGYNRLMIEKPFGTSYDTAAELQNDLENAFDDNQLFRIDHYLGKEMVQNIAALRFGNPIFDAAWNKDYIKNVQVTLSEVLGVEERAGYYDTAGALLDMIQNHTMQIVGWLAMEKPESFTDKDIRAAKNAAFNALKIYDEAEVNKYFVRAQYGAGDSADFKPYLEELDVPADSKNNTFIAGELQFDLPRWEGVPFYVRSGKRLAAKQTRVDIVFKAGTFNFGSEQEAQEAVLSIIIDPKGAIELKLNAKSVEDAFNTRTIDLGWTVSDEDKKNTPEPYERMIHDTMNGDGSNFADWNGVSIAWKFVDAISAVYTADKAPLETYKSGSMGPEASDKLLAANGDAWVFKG

“ClpB_(E279A/E678A) (from UniProt P63284 1-857) (natural protein)” had a fold binding relative to wt ClpB (in the absence of DnaK) of 4 fold.

These data come from article PMC5895705.
